Patent US10865390B2, “Alcohol dehydrogenase mutant and application thereof in synthesis of diaryl chiral alcohols” (Jiangnan University, priority 2018, dated 2020)
“And” between values parts separate entries of the source, which are not always exact repeats. Identical values can stand only once.

Key:
Type in all cases: biochemical
[1] = tested on: O=C(c1ccc(Cl)cc1)c1ccccn1; assay: Kinetic analysis of KpADH mutant M2 with CPMK; settings: other: M2, NADPH, pH 7.0, 30° C.
Method: In an embodiment of the present disclosure, the mutant includes the substitution of valine for glutamic acid at position 214 of the alcohol dehydrogenase with the amino acid sequence shown in SEQ ID No. 2, which is named M2.
(§1) Adopting a total reaction system of 200 μL including: 1.0 mM NADPH, 1.0 mM substrate CPMK and sodium phosphate buffer (PBS, 100 mM, pH 7.0), fully and evenly mixing, maintaining at 30° C. for 2 min, adding an appropriate amount of enzyme solution, and detecting the change in light absorption at 340 nm.
(§2) The enzyme activity was calculated by the following formula: Enzyme activity (U)=EW×V×10^3/(6220×1);
(§3) in the formula, EW is the change in absorbance at 340 nm in 1 min; V is the volume of a reaction solution in mL; 6220 is the molar extinction coefficient of NADPH in L/(mol·cm); and 1 is the optical path distance in cm. One activity unit (U) corresponds to the amount of enzyme required to catalyze the oxidation of 1 μmol NADPH per minute under the above conditions.
(§4) A column used for purification was a nickel affinity column HisTrap FF crude, and purification was achieved through affinity chromatography using a histidine tag on recombinant protein. The nickel column was equilibrated with a solution A first, a crude enzyme solution was loaded, a penetrating peak was further eluted off using the solution A, and after equilibrium, a solution B (20 mM sodium phosphate, 500 mM NaCl, and 1000 mM imidazole, pH 7.4) was used for gradient elution to elute off the recombinant protein bound to the nickel column, so as to obtain the recombinant alcohol dehydrogenase mutant. The purified protein was subjected to activity measurement (CPMK as substrate, and NADPH as coenzyme) and SDS-PAGE analysis. […] The purified alcohol dehydrogenase protein was then replaced into a Tris-HCl (100 mM, pH 7.0) buffer using a Hi Trap Desalting column (GE Healthcare).
(§5) The activity of KpADH at different substrate concentrations and coenzyme concentrations was determined, and a double reciprocal curve was made based on the reciprocal of activity and substrate concentration to calculate kinetic parameters.

[2] = tested on: O=C(c1ccc(Cl)cc1)c1ccccn1; assay: Kinetic analysis of KpADH mutant M1 with CPMK; settings: other: M1, NADPH, pH 7.0, 30° C.
Method: In an embodiment of the present disclosure, the mutant includes the substitution of glycine for glutamic acid at position 214 of the alcohol dehydrogenase with the amino acid sequence shown in SEQ ID No. 2, which is named M1.
as §1, §2, §3, §4, §5

[3] = tested on: O=C(c1ccc(Cl)cc1)c1ccccn1; assay: Kinetic analysis of KpADH mutant M3 with CPMK; settings: other: M3, NADPH, pH 7.0, 30° C.
Method: (§6) In an embodiment of the present disclosure, the mutant includes the substitution of glycine for glutamic acid at position 214 of the alcohol dehydrogenase with the amino acid sequence shown in SEQ ID No. 2, and the substitution of cysteine for serine at position 237, which is named M3.
as §1, §2, §3, §4, §5

[4] = tested on: O=C(c1ccc(Cl)cc1)c1ccccn1; assay: Kinetic analysis of KpADH mutant M4 with CPMK; settings: other: M4, NADPH, pH 7.0, 30° C.
Method: as §6, with “the” for “the alcohol dehydrogenase with the”, “2,” for “2, and”, “237, and the substitution of asparaginate for glutamine at position 136,” for “237,”, “M4.” for “M3.”
as §1, §2, §3, §4, §5

[5] = tested on: O=C(c1ccc(Cl)cc1)c1ccccn1; assay: Kinetic analysis of KpADH mutant M6 with CPMK; settings: other: M6, NADPH, pH 7.0, 30° C.
Method: In an embodiment of the present disclosure, the mutant includes the substitution of glycine for glutamic acid at position 214 of the amino acid sequence shown in SEQ ID No. 2, the substitution of cysteine for serine at position 237, the substitution of asparaginate for glutamine at position 136, the substitution of glycine for serine at position 196, and the substitution of valine for phenylalanine at position 161, which is named M6.
as §1, §2, §3, §4, §5

[6] = Stereoselectivity analysis of CPMK reduction (chiral liquid chromatography, Table 1); settings: product CPMA from CPMK
Method: (§7) In an embodiment of the present disclosure, the (R)- and (S)-CPMA is chromatographed by taking 100 μL reaction solution, adding 500 μL ethyl acetate, shaking for 1-2 min, centrifuging at 12,000 rpm for 2-5 min, placing a supernatant into a centrifuge tube, and after an organic phase is naturally volatilized completely, adding 500 μL chromatographic pure ethanol for chiral liquid chromatography of a conversion rate and an ee value. The specific chromatographic conditions are as follows: Daicel Chiralcel OB-H (5 μm, 250 mm×4.6 mm) liquid chromatography column, mobile phases are n-hexane: ethanol: ethanolamine (90:10:0.01, v/v/v), the flow rate is 1 mL/min, the column temperature is 30° C., the UV detection wavelength is 254 nm, the injection volume is 10 μL, and the retention time for (R)-CPMA and that for (S)-CPMA are 11.14 min and 12.34 min respectively.
Method for determining optical purity ee:
As: molar concentration of (S)-CPMA obtained by liquid chromatography; and AR: molar concentration of (R)-CPMA obtained by liquid chromatography.
as §5

[7] = Substrate specificity: reduction of prochiral carbonyl compound (Table 2)
Excerpt: The reduction on prochiral carbonyl compounds by the alcohol dehydrogenase mutants obtained in Example 2 was studied, and the studied prochiral carbonyl compounds include (4-chlorophenyl)-(pyridin-2-yl)-methanone (CPMK), phenyl-(pyridin-2-yl)-methanone, (4-chlorophenyl)-(phenyl)-methanone, (4-bromophenyl)-(phenyl)-methanone, (4-fluorophenyl)-(pyridin-2-yl)-methanone, (4-methoxyphenyl)-(phenyl)-methanone, acetophenone, 4-chloroacetophenone and 2-(4-chlorophenyl)acetyl chloride.

[8] = 20 mL biocatalytic system: asymmetric reduction of CPMK
Method: as §7
A 20 mL biocatalytic system was established: 100 mM potassium phosphate buffer (pH 7.0), and the alcohol dehydrogenase mutants M6 and M7 obtained in Example 2 as well as wild KpADH 10 g/L, CPMK 100 mM, 200 mM and 500 mM were added (substrate added in batches). […]

alcohol dehydrogenase KpADH mutant M2 (E214V of SEQ ID No. 2) (Vanderwaltozyma polyspora DSM 70294; E214V)
Km [1]: 574 µM | Vmax [1]: 17.5 µmol/min/mg | kcat [1]: 11.7 s⁻¹ | kcat/Km [1]: 14200 M⁻¹ s⁻¹

alcohol dehydrogenase KpADH mutant M1 (E214G of SEQ ID No. 2) (Vanderwaltozyma polyspora DSM 70294; E214G)
Km [2]: 520 µM | Vmax [2]: 11.1 µmol/min/mg | kcat [2]: 7.32 s⁻¹ | kcat/Km [2]: 14100 M⁻¹ s⁻¹

alcohol dehydrogenase KpADH mutant M3 (E214G/S237C of SEQ ID No. 2) (Vanderwaltozyma polyspora DSM 70294; E214G/S237C)
Km [3]: 632 µM | Vmax [3]: 9.32 µmol/min/mg | kcat [3]: 6.16 s⁻¹ | kcat/Km [3]: 9740 M⁻¹ s⁻¹

alcohol dehydrogenase KpADH mutant M4 (E214G/S237C/Q136N of SEQ ID No. 2) (Vanderwaltozyma polyspora DSM 70294; E214G/Q136N/S237C)
Km [4]: 861 µM | Vmax [4]: 10.2 µmol/min/mg | kcat [4]: 6.76 s⁻¹ | kcat/Km [4]: 7850 M⁻¹ s⁻¹

alcohol dehydrogenase KpADH mutant M6 (E214G/S237C/Q136N/S196G/F161V of SEQ ID No. 2) (Vanderwaltozyma polyspora DSM 70294; E214G/F161V/Q136N/S196G/S237C)
Km [5]: 1120 µM | Vmax [5]: 25.2 µmol/min/mg | kcat [5]: 20.1 s⁻¹ | kcat/Km [5]: 17900 M⁻¹ s⁻¹

B1: KpADH: wild type alcohol dehydrogenase KpADH, amino acid sequence shown in SEQ ID No. 2 (protein)
chain: MSVLISGASGYIAKHIVRVLLEQNYKVIGTVRSQDKADKLLKQYNNPNLSYEIVPEIANLDAFDDIFKKHGKEIKYVIHAASPVNFGAKDLEKDLVIPAINGTKNMFEAIKKYAPDTVERVVMTASYASIMTPHRQNDPTLTLDEETWNPVTEENAYENVFTAYCASKTFAEKEAWKFVKENSDAVKFKLTTIHPSFVFGPQNFDEDVTKKLNETCEIINGLLHAPFDTKVEKTHFSQFIDVRDVAKTHVLGFQKDELINQRLLLCNGAFSQQDIVNVFNEDFPELKGQFPPEDKDTDLNKGVTGCKIDNEKTKKLLAFEFTPFHKTIHDTVYQILHKEGRV
modifications: Protein translated from synthetic DNA
ee [6]: 82% and 82.5% | ee value of product ([7]; substrate drawing 1 (CPMK)): 81.9% | ee value of product ([7]; substrate drawing 2): 26.3% | ee value of product ([7]; substrate drawing 3): 71.4% | ee value of product ([7]; substrate drawing 4): 69.2% | ee value of product ([7]; substrate drawing 5): 25.3% | ee value of product ([7]; substrate drawing 6): 14.9% | ee value of product ([7]; substrate drawing 7): 59.2% | ee value of product ([7]; substrate drawing 8): 67.1% | ee value of product ([7]; substrate drawing 9): 77.8% | ee value of final reduction product ([8]; 20 mL biocatalytic system, enzyme 10 g/L, 30° C., pH 7.5): 82% | Conversion rate ([8]; CPMK 100 mM, reaction time 1 h): 47.76% | Conversion rate ([8]; CPMK 100 mM, reaction time 2 h): 77.9% | Conversion rate ([8]; CPMK 100 mM, reaction time 3 h): 87.1% | Conversion rate ([8]; CPMK 100 mM, reaction time 4 h): 96.5% | Conversion rate ([8]; CPMK 100 mM, reaction time 6 h): 98.7% | Conversion rate ([8]; CPMK 100 mM, reaction time 8 h): 99.6% | Conversion rate ([8]; CPMK 100 mM, reaction time 12 h): >99.9% | Conversion rate ([8]; CPMK 100 mM, reaction time 24 h): >99.9% | Conversion rate ([8]; CPMK 200 mM, reaction time 1 h): 25.6% | Conversion rate ([8]; CPMK 200 mM, reaction time 2 h): 36.9% | Conversion rate ([8]; CPMK 200 mM, reaction time 3 h): 50.5% | Conversion rate ([8]; CPMK 200 mM, reaction time 4 h): 62.8% | Conversion rate ([8]; CPMK 200 mM, reaction time 6 h): 85.3% | Conversion rate ([8]; CPMK 200 mM, reaction time 8 h): 97.4% | Conversion rate ([8]; CPMK 200 mM, reaction time 12 h): 99.4% | Conversion rate ([8]; CPMK 200 mM, reaction time 24 h): 99.7% | Conversion rate ([8]; CPMK 500 mM, reaction time 1 h): 11.7% | Conversion rate ([8]; CPMK 500 mM, reaction time 2 h): 20.1% | Conversion rate ([8]; CPMK 500 mM, reaction time 3 h): 44.8% | Conversion rate ([8]; CPMK 500 mM, reaction time 4 h): 59.6% | Conversion rate ([8]; CPMK 500 mM, reaction time 6 h): 80.2% | Conversion rate ([8]; CPMK 500 mM, reaction time 8 h): 93.2% | Conversion rate ([8]; CPMK 500 mM, reaction time 12 h): 95.6% | Conversion rate ([8]; CPMK 500 mM, reaction time 24 h): 99.2% | time required to achieve a conversion rate close to 99.9% ([8]; CPMK concentration 200 mM): 12 h
